Test results taken from US20040115656A1.

Biological target: androgen receptor (UniProt P10275)
Assay: cell-based or functional assay

Sequence of UniProt P10275 (P10275 whole entry): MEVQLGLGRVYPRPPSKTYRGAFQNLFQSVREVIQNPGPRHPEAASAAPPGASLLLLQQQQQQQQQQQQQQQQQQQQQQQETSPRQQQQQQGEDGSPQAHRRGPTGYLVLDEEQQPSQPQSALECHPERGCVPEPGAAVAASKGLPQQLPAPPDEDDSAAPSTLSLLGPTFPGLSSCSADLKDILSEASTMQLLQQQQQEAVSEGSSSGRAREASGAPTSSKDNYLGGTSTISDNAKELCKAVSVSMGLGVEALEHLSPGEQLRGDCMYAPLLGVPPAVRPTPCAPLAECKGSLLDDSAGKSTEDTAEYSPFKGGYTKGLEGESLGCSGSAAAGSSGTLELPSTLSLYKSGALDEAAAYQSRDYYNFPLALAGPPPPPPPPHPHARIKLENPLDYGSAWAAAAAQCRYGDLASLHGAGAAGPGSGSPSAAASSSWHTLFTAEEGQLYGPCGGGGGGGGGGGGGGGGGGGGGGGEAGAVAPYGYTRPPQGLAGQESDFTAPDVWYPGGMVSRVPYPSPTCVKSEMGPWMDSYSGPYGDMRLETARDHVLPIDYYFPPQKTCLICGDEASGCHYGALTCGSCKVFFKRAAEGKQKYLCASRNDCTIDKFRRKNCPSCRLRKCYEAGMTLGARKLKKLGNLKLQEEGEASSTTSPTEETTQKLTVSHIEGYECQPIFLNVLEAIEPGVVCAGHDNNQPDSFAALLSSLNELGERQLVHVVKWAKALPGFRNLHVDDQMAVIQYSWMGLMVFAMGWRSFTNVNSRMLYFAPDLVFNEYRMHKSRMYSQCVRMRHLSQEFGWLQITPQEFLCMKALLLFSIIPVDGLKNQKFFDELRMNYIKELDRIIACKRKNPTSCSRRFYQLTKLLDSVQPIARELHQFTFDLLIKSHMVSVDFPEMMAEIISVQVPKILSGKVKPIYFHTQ

luciferase activity of AFP promoter (ARE) reporter in MCF7 and G2 cells (times (relative to the control reporter)): 2
Substance: human androgen receptor down-regulatory-associated protein
